Source: PMC8294851

Experiments:
[1] = target: Neuronal SNARE complex (VAMP2 on nanolipoprotein particles with flipped t-SNAREs Syntaxin-1 and SNAP-25 on tCells) (not stated | rat) (UniProt P63045)
[2] = target: Neuronal SNARE complex (VAMP2 on nanolipoprotein particles with flipped t-SNAREs Syntaxin-1 and SNAP-25 on tCells) (not stated | rat) (UniProt P63045); remark: listed apart in the source
[3] = target: Neuronal SNARE complex (VAMP2 on nanolipoprotein particles with flipped t-SNAREs Syntaxin-1 and SNAP-25 on tCells) (not stated | rat) (UniProt P63045); remark: listed apart in the source

Chain of UniProt P63045 (P63045 whole entry, chain 1 of 3): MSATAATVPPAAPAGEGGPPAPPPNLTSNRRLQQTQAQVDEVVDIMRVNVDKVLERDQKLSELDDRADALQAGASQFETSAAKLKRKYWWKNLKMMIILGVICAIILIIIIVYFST
Chain of UniProt P63045 (P32851 186-288, chain 2 of 3, further chain): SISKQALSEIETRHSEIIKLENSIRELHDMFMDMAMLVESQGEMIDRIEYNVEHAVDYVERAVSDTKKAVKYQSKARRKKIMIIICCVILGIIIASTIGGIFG
Chain of UniProt P63045 (P60881 2-206, chain 3 of 3, further chain): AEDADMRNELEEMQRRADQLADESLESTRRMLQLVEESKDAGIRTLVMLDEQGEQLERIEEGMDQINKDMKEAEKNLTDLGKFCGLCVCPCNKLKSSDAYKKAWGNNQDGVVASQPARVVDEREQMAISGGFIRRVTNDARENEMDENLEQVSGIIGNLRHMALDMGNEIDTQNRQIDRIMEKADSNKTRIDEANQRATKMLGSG

## Full-length Synaptotagmin-1 (pET28a-SUMO-synaptotagmin 1, residues 57-421), reconstituted into nanolipoprotein particles (from UniProt P21707 57-421) (natural protein)
[1]
  mean single-pore conductance, fusion of NLPs carrying Syt1 and VAMP2 with flipped t-SNARE cells pre-incubated with diC8PI(4,5)P2, compared to SNARE-alone fusion: 3 fold

## Synaptotagmin-1 C2AB R398Q, R399Q (from UniProt P21707 96-421) (domain or fragment)
[2]
  mean single open-pore conductance, mutant C2AB with VAMP2 NLPs and flipped t-SNARE cells, 100 μM free calcium and exogenous PI(4,5)P2, compared to wild-type C2AB: 3 fold smaller

## Synaptotagmin-1 soluble C2AB domains (rat Syt1 residues 96-421) (from UniProt P21707 96-421) (domain or fragment)
[3]
  mean single fusion pore conductance, 10 μM soluble C2AB with VAMP2 NLPs and flipped t-SNARE cells, 100 μM calcium and exogenous PI(4,5)P2, compared to no Syt1: 3 fold
